# Laboratory results reported in the DeepSol protein solubility set.
# Experiment: soluble on expression in E. coli; label from the status in PepcDB or PDB records
row,Sequence,soluble on expression in E. coli
1,MKAIILAGGHSVRFGKPKAFAEVNGETFYSRVIKTLESTNMFNEIIISTNAQLATQFKYPNVVIDDENHNDKGPLAGIYTIMKQHPEEELFFVVSVDTPMITGKAVSTLYQFLVSHLIENHLDVAAFKEDGRFIPTIAFYSPNALGAITKALHSDNYSFKNIYHELSTDYLDVRDVDAPSYWYKNINYQHDLDALIQKLLEHHHHHH,soluble
2,KPTEPHQFAQQVLYDLDQQPRIIAQLSHQQPMLLYFWGTWCRYCQFTSAAVQQLANEKIPILTIALKSGDEQDISNNYLTQQKYTFPTINDPDGNIAKNWTIQATPTIIFIKDGKIVEYTTGLTSYWGLKSRLW,not soluble
3,MKQVAKGLQMEGNFGTAHVYRSSLNAIIAYRGKGDFTFHEVTPEWLKGFEIHLRGRGCSWNTVSTYLRTFRAVYNRAVDCRGAVYVPHLFRSVYTGTRADRKRALCDEDMQKVFAKLPSSPAVTPAMRRTQELFVLMFLLRGLPFVDLAYLRKSDLHDNVITYRRRKTGRPLSVTLTREAMVLLKRYMNRDSSSPYLFSLLESREGTKEAYREYQLALRSFNQQLLLLGQLLGLGDRLSSYTARHTWATTAYYCEIHPGIISEAMGHSSITVTETYLKPFRNKKIDEANQLVTDFVKRIVTGLIA,not soluble
4,MSLTKQVYIIHGYRASSTNHWFPWLKKRLLADGVQADILNMPNPLQPRLEDWLDTLSLYQHTLHENTYLVAHSLGCPAILRFLEHLQLRKQLGGIILVSGFAKSLPTLQMLDEFTQGSFDHQKIIESAKHRAVIASKDDQIVPFSFSKDLAQQIDAALYEVQHGGHFLEDEGFTSLPIVYDVLTSYFSKETREGGSHHHHHH,soluble
5,MLDKVIYSLLRTQDPGLAQELYFRLQAKEQSFAEVAQKYSQGPESQTGGLVGPVEQSSLHPAMVQLLSSCQPGQISPPTRITELEHHHHHH,not soluble
6,MDSDRLSSVEQFPDRGNNHVEEGSAIDYQRVPPLSGTHYASTVSAGFYEATPLLGSLVHTLEHGAVIVYYDPDEISPEARQSLREFSSVHTGTWRSVVAVPNPNDDPRATYVVTAWQHELTIDSYDAETVHAFLSEYLGRGPENPVRLEHHHHHH,not soluble
7,MGSDKIHHHHHHMFLAGAFIAVGSLYAQSSDAEWQAGVAKLKETIQTNPAQANEEAEQLIKGKNKKNVELLVAIGEVYLKAGKLPEAQEYAALAKKVNGKSALASVLEGDIAFEQKNAGLASQKYEEAIYFDPSCTEAYLRYADIYKSANAALAIEKLEQLKAQEPSNTAVDKKLAEIYYLKNDFSKAAEAYSRFAMGPTATEEDLVKYAFALFLNHDFEKSLEVANMGLKKNARHAAFNRLAMYNYTDLKRFDEAIKAADAFFTESDKADYSYLDYMYYGHLLEALKKYDEAVGQYEKAIQLDPTKTDLYKNISSAYEQKNDYKKAISAYQKYYTSLDKEHQTPDLQFQFGRLYYGAGTQTDSLTINAEERKQALMAADSVFHSIAEAAPDSYLGNFWRARANSALDPETTLGLAKPFYEEVATLLESKNDPHYNSALIECYSYLGYYYLLAIENPALKAEAMANKEKSKEYWSKILAIDSTNATAKRALDGIK,not soluble
8,MAESRSPDRGAKEDKPRPRNISREESLQLEGYKHACHALLHAPSQAKLFDRVPIRRVLLMMMRFDGRLGFPGGFVDTRDISLEEGLKRELEEELGPALATVEVTEDDYRSSQVREHPQKCVTHFYIKELKLEEIERIEAEAVNAKDHGLEVMGLIRVPLYTLRDRVGGLPAFLCNNFIGNSKSQLLYALRSLKLLREDQIQEVLKASHRLQY,soluble
9,MGSDKIHHHHHHMSDSAKQPELWLMGLGCEEERSTAVLDYLRHAGYSVVCRGRDDFGDTKPLGVVLDVSPFSHDGWGILLDIKNNPATRDVPILPVYLSQEGKIGGVFPAAGFFTLPIDTDYMMKKLTVLGLTDEADTWDLQVMVISKKGEESVAKAITSLGFEVVNAYTGKEAVALATTGRAYMIFCSVTLPDMHSFELLERFRLYPQVRNVPFFVLVKDAMKEGERLALSRQMDHLVRKKELSRDEFLAYLRRRG,not soluble
10,MGSDKIHHHHHHMKITFPNLGNTLYAAKALFDNLEIEYVLPPNSSKKCLEIGSLYSPEDICLPFKIMIGAYIDSIERGADTILITGSCGPCRFGEYCELQINLLKKLGHDVDFIVLDRPSSIGKTEFLNRLSKISGSSSISSYKKLKAVYSAYKIINLIDYIEKTARYKAGFELKKGECKKILQTCKKSALTCNNAESMIDLLTKYKHMINHVPIDSTKTPLKVSIIGEIYTILEPFSNLYIENKLMDLGISTQKNITPSWWFKDAMLSNLNLNSINLRMNSKKYLPYYIGGHGRECVGEAVMASNSGFDGAIQLFPMGCMPEIVSKSILPTISRDKDFPILSLIIDEMTGDAGYMTRIEAFIDLLERRKNRCII,not soluble
11,MSLSEVSLRPAKISTVLPGSLGEEMGFEPGDAIVRINGQAPRDLIDYQFLCADDYLELDVLDSQGELHELAVEKEFDQDLGLGFETALFDGLIQCNNRCPFCFIDQQPPGKRESLYYKDDDYRLSFLYGSYLTLTNLSAKEWQRIEQLRLSPLYVSIHATEASVRERLLKNHRAGQILDQLAWFQARRLQIHAQVVVCPGVNDGKHLEQTLRDLAQFHQGETPAVISVAVVPVGLTRFRPQEDELSPVGQAKATEVIAQVQALQKEFAQQLGGNFVWLADEWFLIARQPLPPESHYEDYPQIGNGVGSIRQFIKEFQQQAAEFLPPAIAEAKTLTWVVGNAVEQAFELLVEQLNQVKGLTVNLAPLNSDYWGQEITVTGLLTGQDLIAKLAGRDLGDGILLPALMLKHDDTRFLDDLRVADVAQKLGTTIYPVADVASLLEHCVQPMAVSREGHHHHHH,soluble
12,MGSDKIHHHHHHMIDVEEILSKMNLNQKINYDRVMQKMVQVWEKNEQRPTILMHVCCAPCSTYTLEYLTKYADVTIYFANSNIHPKAEYHKRAYVTKKFVSDFNERTGNSVQYLEAPYEPNEYRKLVRGLEEEPEGGDRCQVCFDYRLDKTAQVAMDLGFDYFGSALTISPHKNSQTINSIGIDVQKIYTTHYLPSDFKKNQGYKRSVEMCEEYDIYRQCYCGCVYAAQAQNIDLVQVKKDATAFLLDKDVEKDYSHIKFTVTKLDI,not soluble
13,MIPTISDVSTVEEWRSVAKDIVQRDGDVNWRATIVDWPGLGYSARPKMDYDTDVMEKFVVDFMNSPESPMSQSGNDDLVIIGGGHAATLALRATQRGLLKPSAIAAVAPTWAGPLPIVFGRDSSMVSRYGMLRGTLRAPGVGWMMYNMLVSNEKSIESQYKSHVYADQTNVTDAIIQSRYELTKQKGSRYVPAAFLTGLLDPVSSREEFLQLFADLEGKLPVMVMSTKGAPKRSKAEMEALRGAKGVSKFVEVEGALLPQEEYPSLVAQELYNFLQETFAKC,not soluble
14,MEDLDAYRAACANRIRRLERYKKARSFCSLETDEPTSSSPSLSSNSDVSQENGSSTFDMIREKMFSLMENDMTLLKQLLQLGDQISEIKKERLRRTMSQNSLEYDEEDEKEDKFDSGFSASMSAVTNLYVDDERPQFFSRQNSVLRIPIPPRSSNRFGPRRVIRRPSDILPRQQTNNIRTLHVNSDDSDSSSSGSKTHSPSSSVYNASTLILPSKTTKNRSSNSSIDSGIRDEQLTPSPTFESVVI,not soluble
15,AVSGIRQSLISRKALTLFKTVLPAMSQTEKEALDAGTVWWEAELFKGKPEWEKLHAIQAPKLSAEERAFLDGPVNEVCAMVSDFQVTHELADLPPEVWQYLKDNKFFAMIIK,not soluble
16,PKTGPTMTKELVFSSNIGQHDLDTKSKQIQQWIEKKYHVQVTIKRRKDAEQSEEETEEIFNQILQTMPDIATFSSRPKAIRGGTASMCVFRHLSKKEEK,soluble
17,LAIFLIDLPPSDMERRLGDALTVYVDAMRYPRGTETLRAPMWLEHIRRRGWQAVAAVEVTAAEQAEAADTTALPSAAELSNAPMLGVAYGYPGAPGQWWQQQVVLGLQRSGFPRLAIARLMTSYFELTELHILPRAQGRGLGEALARRLLAGRDEDNVLLSTPETNGEDNRAWRLYRRLGFTDIIRGYHFAGDPRAFAILGRTLPL,not soluble
18,MGSSHHHHHHSSGLVPRGSHMASERPVSTLSSQITGELRELNPQATGSSTSLVGQSLFQHSSLDTSQFGLNASIAEVLNASFKDGMLQNSQLIGEIALNYLPNSVMNSPLPIGINLRINNGAKFEKVILNQAFIERVAPEEFKVNPSFIDSRTLGAIKYSIKEPIAPIVIHPVWRFESHQASVVLTVKMSPSLPDEISQIVIEDLVVFVNIDGANATSALSKPQGSFSKEKKRITWRFKEPVVLTRNGEGQRLIARFITDGLAHESAKGVITKFTISETDNVALPHSGAGSGITLTCQELDENNPFGGEWLDVNTKRTLTTGNYHGLA,soluble
19,MGSDKIHHHHHHMEFFSTRNKILSINPNGLRSTSIQLRERIWNVFYKEEYDYYDTLEYTSYTTGIEDMMLEMGIKYEFPANKIYKNQNAEKLHKHVVQCEGMWYRIYDFIEKYLRVTDSEKTQRLTIEFNRILEEEVAPYRILNGLVVPIIGKSELNSIGETIDLEYESVSKHMTKALELYSDRKKPDYENSVKESISSVESMCSIITGLSGGAATLGNTLKKLKENGVNIHPALENAFKQLYGYTSDSGGIRHGSIEFVNVASEDAKYMLVSCSAFVNYLTEKWIKYNLK,not soluble
20,MGHHHHHHSHMNQSRSRSDGGSEETLPQDHNHHENERRWQQERLHREEAYYQFINELNDEDYRLMRDHNLLGTPGEITSEELQQRLDGVKEQLASQPDLRDGTNYRDSEVPRESSHEDSLLEWLNTFRRTGNATRSGQNGNQTWRAALPDTS,not soluble
21,MGSDKIHHHHHHMKLETIDYRSPDAAAQFVQSLRDTGFGVLSNHPIQQSLVEAIYKDWYEFFQSGAKEEFRFNPETQDGFFPADVSETAKGHSVKDIKEYYHVYPWGRIPESLRANILAYYDHANQLAAELLSWVEAHSPDEVKALFTEPLPNMIDGSHKTLLRVLHYPPMKGDEEPGAIRAAAHEDINLLTVLPAANEPGLQVKAKDGTWLDVPSDFGNIIINIGDMLQEASGGYFPSTSHRVINPEGMDKTKSRISLPLFLHPRPDVVLSERYTADSYLMERLRELGVI,not soluble
22,MGSDKIHHHHHHMKYLIVVAHPDDEVLGAGASISRWTQNGDIVDVAIMCAEAKARAFRPDDNELEDDTNASTKYLGVDRIFEATFPNIEMNTVPHLRLVQFIESAIKESEPDIVITHHPADTNNDHLQTSMACQEAIRLFQRRPEVKRVKEFWYMEVPSCTEWAINNAMNLFRPNCYVEVGQEGVDAKITALGMYRGVMRPYPHPRSAEYITGLAAVRGSQWGTNYAESFEIVLREY,not soluble
23,MGEAAVAEGPCPLLEDSFTRFSSQSNVYGLAGGADGRGELLAATLKGKVLGFRYQDLRQKIRPVAKELQFNYIPVDAEIVSIDTFNKSPPKRGLVVGITFIKDSGDKGSPFLNIYCDYEPGSEYNLDSIAESCLNLELQFTPFQLCHAEVQVGDQLETVFLLSGNDPAIHLYKENEGLHQFEEQPVENLFPELTNLTSSVLWLDVHNLPGSSQRLSALGCQSGYVRVAHVDQKNQEILQTWTIQQDGPISRVIVFSLSASEATQDSPQQEGYSLLVASMLEPAVVYWDLLNKGLDDQLLLPGSDQFDSVLCGLVTDVDLDGQLEVLVATYGQELLCYKYRGLPEDSRGFRLLWRRSFASPLLAMAHVDLTGDGLRELAVISLKGVHILQHSLIQASELVLTRLRHQVEQRKHQQGLGDRVGPRPVEHPAS,soluble
24,MPGVKVKETESFELALKKFKKQCEKAGILSEVRKREHYEKPSIKRKKKAIAARKRAMKKQRKMMDLEHHHHHH,not soluble
